{"source": "paper doi:10.1101/2021.03.12.435194", "about": "“Antibody evasion by the Brazilian P.1 strain of SARS-CoV-2” (bioRxiv, 2021)", "biological_target": "T1, WT RBD (Wuhan) (SARS-CoV-2, Wuhan (RBD identical in …, UniProt P0DTC2))", "T1 construct": "also called Wuhan RBD; native RBD", "test": "crystal structure", "conditions": "both partners purified"}
{"binder": "EY6A Fab (Fab, V domains shown) VH: EVQLVESGGGVVQPGRSLRLSCAASAFTFSSYDMHWVRQAPGKGLEWVAVISYDGSNKYYADSVKGRFTISRDNSKNTLYLQMNSLRAEDTAVYYCAKDGGKLWVYYFDYWGQGTLVTVSS VL: not shown", "values": [{"measurement": "binding result", "value": "binds"}]}
